Experiments:
[1] = biological target: Histone H3 recombinant protein, calf, Roche 11 034 758 001 (calf) (UniProt P68432); assay: RPA, competition: +recombinant protein 100 nM (not named)
[2] = biological target: Erk1-BSA 2.7x peptide-protein conjugate (human; bovine); assay: as above
[3] = biological target: ERK1 (p42) active (phospho), human, Active Motif 31 152 (human) (UniProt P27361); assay: as above
[4] = biological target: pRb recombinant protein, human, Active Motif 31 128 (human) (UniProt P06400); assay: as above
[5] = biological target: pRb-BSA 1x peptide-protein conjugate (bovine); assay: as above
[6] = biological target: ERK1 (p44), human, Cell Signaling Technology 7416 (human) (UniProt P27361); assay: as above
[7] = biological target: ERK1 (p44) active (GST tagged), human, Invitrogen PV 3311 (human) (UniProt P27361); assay: as above
[8] = biological target: ERK1 (p44) inactive (GST tagged), human, Invitrogen PV 3312 (human) (UniProt P27361); assay: as above
[9] = biological target: pErk1/2-BSA 2.7x peptide-protein conjugate (human; bovine); assay: as above
[10] = biological target: ERK2 (p42), human, Biosource PHO 0104 (human) (UniProt P28482); assay: as above
[11] = biological target: Histone H3 recombinant protein, human, Upstate 14-494 (human) (UniProt P68431); assay: as above
[12] = biological target: Histone H3-BSA 2.7x peptide-protein conjugate (bovine); assay: as above
[13] = biological target: Histone H3 recombinant protein, calf, Roche 11 034 758 001 (calf) (UniProt P68432); assay: RPA, competition: +free Erk1 peptide 1000 nM
[14] = biological target: Erk1-BSA 2.7x peptide-protein conjugate (human; bovine); assay: RPA, competition: +free Erk1 peptide 1000 nM
[15] = biological target: ERK1 (p42) active (phospho), human, Active Motif 31 152 (human) (UniProt P27361); assay: RPA, competition: +free Erk1 peptide 1000 nM
[16] = biological target: pRb recombinant protein, human, Active Motif 31 128 (human) (UniProt P06400); assay: RPA, competition: +free Erk1 peptide 1000 nM
[17] = biological target: pRb-BSA 1x peptide-protein conjugate (bovine); assay: RPA, competition: +free Erk1 peptide 1000 nM
[18] = biological target: ERK1 (p44), human, Cell Signaling Technology 7416 (human) (UniProt P27361); assay: RPA, competition: +free Erk1 peptide 1000 nM
[19] = biological target: ERK1 (p44) active (GST tagged), human, Invitrogen PV 3311 (human) (UniProt P27361); assay: RPA, competition: +free Erk1 peptide 1000 nM
[20] = biological target: ERK1 (p44) inactive (GST tagged), human, Invitrogen PV 3312 (human) (UniProt P27361); assay: RPA, competition: +free Erk1 peptide 1000 nM
[21] = biological target: pErk1/2-BSA 2.7x peptide-protein conjugate (human; bovine); assay: RPA, competition: +free Erk1 peptide 1000 nM
[22] = biological target: ERK2 (p42), human, Biosource PHO 0104 (human) (UniProt P28482); assay: RPA, competition: +free Erk1 peptide 1000 nM
[23] = biological target: Histone H3 recombinant protein, human, Upstate 14-494 (human) (UniProt P68431); assay: RPA, competition: +free Erk1 peptide 1000 nM
[24] = biological target: Histone H3-BSA 2.7x peptide-protein conjugate (bovine); assay: RPA, competition: +free Erk1 peptide 1000 nM
[25] = biological target: Histone H3 recombinant protein, calf, Roche 11 034 758 001 (calf) (UniProt P68432); assay: RPA, normal assay
[26] = biological target: Erk1-BSA 2.7x peptide-protein conjugate (human; bovine); assay: RPA, normal assay
[27] = biological target: ERK1 (p42) active (phospho), human, Active Motif 31 152 (human) (UniProt P27361); assay: RPA, normal assay
[28] = biological target: pRb recombinant protein, human, Active Motif 31 128 (human) (UniProt P06400); assay: RPA, normal assay
[29] = biological target: pRb-BSA 1x peptide-protein conjugate (bovine); assay: RPA, normal assay
[30] = biological target: ERK1 (p44), human, Cell Signaling Technology 7416 (human) (UniProt P27361); assay: RPA, normal assay
[31] = biological target: ERK1 (p44) active (GST tagged), human, Invitrogen PV 3311 (human) (UniProt P27361); assay: RPA, normal assay
[32] = biological target: ERK1 (p44) inactive (GST tagged), human, Invitrogen PV 3312 (human) (UniProt P27361); assay: RPA, normal assay
[33] = biological target: ERK2 (p42), human, Biosource PHO 0104 (human) (UniProt P28482); assay: RPA, normal assay
[34] = biological target: Histone H3 recombinant protein, human, Upstate 14-494 (human) (UniProt P68431); assay: RPA, normal assay
[35] = biological target: Histone H3-BSA 2.7x peptide-protein conjugate (bovine); assay: RPA, normal assay

UniProt P28482, sequence (P28482 2-360 limits assumed): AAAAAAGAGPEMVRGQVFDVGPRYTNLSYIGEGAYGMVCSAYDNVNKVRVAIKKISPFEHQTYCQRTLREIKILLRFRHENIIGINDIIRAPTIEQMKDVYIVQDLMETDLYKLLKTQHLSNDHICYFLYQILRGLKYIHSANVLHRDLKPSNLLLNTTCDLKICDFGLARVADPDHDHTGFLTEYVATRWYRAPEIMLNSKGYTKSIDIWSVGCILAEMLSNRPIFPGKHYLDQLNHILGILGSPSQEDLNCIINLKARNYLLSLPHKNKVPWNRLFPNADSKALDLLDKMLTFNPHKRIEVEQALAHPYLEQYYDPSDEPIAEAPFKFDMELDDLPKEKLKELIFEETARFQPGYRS
Erk1-BSA 2.7x peptide-protein conjugate (human; bovine), sequence (peptide, as listed by the source limits assumed, chain 1 of 2): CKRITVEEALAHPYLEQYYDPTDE
Erk1-BSA 2.7x peptide-protein conjugate (human; bovine), sequence (P02769 25-607 limits assumed, chain 2 of 2): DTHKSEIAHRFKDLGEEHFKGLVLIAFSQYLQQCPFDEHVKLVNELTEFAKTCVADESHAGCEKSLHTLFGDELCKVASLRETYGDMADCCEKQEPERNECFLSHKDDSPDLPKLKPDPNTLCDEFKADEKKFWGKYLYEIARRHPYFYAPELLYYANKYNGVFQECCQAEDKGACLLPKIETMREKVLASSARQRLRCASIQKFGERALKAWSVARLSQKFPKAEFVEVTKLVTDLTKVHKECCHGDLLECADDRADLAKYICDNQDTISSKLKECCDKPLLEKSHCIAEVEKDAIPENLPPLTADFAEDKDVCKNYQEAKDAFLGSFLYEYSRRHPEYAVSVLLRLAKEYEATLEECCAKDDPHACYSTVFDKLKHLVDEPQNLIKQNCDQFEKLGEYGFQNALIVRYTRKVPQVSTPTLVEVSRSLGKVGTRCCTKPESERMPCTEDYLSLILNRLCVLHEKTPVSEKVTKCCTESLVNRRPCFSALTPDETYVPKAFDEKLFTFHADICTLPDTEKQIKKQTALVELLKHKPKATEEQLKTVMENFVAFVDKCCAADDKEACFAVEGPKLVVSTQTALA
Histone H3-BSA 2.7x peptide-protein conjugate (bovine), sequence (P02769 25-607 limits assumed): as the sequence (P02769 25-607 limits assumed, chain 2 of 2) above
pErk1/2-BSA 2.7x peptide-protein conjugate (human; bovine), sequence (P02769 25-607 limits assumed): as the sequence (P02769 25-607 limits assumed, chain 2 of 2) above
pRb-BSA 1x peptide-protein conjugate (bovine), sequence (P02769 25-607 limits assumed): as the sequence (P02769 25-607 limits assumed, chain 2 of 2) above
UniProt P06400, sequence (P06400 whole entry): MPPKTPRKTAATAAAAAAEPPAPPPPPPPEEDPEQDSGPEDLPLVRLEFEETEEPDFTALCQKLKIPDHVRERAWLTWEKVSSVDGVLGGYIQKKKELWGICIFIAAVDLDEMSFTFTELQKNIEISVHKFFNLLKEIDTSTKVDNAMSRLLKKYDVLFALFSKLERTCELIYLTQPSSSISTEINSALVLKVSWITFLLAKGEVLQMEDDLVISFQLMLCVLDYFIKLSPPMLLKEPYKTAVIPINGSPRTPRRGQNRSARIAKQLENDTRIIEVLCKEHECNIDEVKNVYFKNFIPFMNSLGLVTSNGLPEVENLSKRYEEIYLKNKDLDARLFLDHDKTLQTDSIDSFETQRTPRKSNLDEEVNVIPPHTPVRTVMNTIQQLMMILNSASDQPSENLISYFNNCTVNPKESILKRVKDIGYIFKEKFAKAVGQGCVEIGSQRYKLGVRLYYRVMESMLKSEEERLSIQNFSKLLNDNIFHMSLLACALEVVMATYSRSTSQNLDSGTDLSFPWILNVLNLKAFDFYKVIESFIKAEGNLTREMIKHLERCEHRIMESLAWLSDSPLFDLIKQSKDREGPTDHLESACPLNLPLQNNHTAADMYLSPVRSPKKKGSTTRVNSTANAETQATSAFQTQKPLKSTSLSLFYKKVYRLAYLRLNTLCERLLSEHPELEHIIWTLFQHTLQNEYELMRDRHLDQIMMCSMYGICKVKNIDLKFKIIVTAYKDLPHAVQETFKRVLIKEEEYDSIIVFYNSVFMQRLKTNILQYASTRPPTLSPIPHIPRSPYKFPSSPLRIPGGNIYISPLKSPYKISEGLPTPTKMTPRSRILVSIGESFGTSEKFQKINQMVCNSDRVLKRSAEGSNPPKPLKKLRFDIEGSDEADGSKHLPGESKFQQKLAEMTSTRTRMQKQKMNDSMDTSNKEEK

| maximum standard curve signal [1] | maximum standard curve signal [2] | maximum standard curve signal [3] | maximum standard curve signal [4] | maximum standard curve signal [5] | maximum standard curve signal [6] | maximum standard curve signal [7] | maximum standard curve signal [8] | maximum standard curve signal [9] | maximum standard curve signal [10] | maximum standard curve signal [11] | maximum standard curve signal [12] | maximum standard curve signal [13] | maximum standard curve signal [14] | maximum standard curve signal [15] | maximum standard curve signal [16] | maximum standard curve signal [17] | maximum standard curve signal [18] | maximum standard curve signal [19] | maximum standard curve signal [20] | Substance | further results |
| --- | --- | --- | --- | --- | --- | --- | --- | --- | --- | --- | --- | --- | --- | --- | --- | --- | --- | --- | --- | --- | --- |
| 0.08 RFI | 0.29 RFI | 0.11 RFI | 0.09 RFI | 0.1 RFI | 0.1 RFI | 0.39 RFI | 0.59 RFI | 0.09 RFI | 0.16 RFI | 0.1 RFI | 0.12 RFI | < 0.01 RFI | 0.01 RFI | < 0.01 RFI | < 0.01 RFI | 0.01 RFI | < 0.01 RFI | 0.02 RFI | 0.04 RFI | p44/42 MAPK (Erk1/2) antibody, Cell Signaling Technology #4695, rabbit monoclonal | maximum standard curve signal [21]: 0.01 RFI; maximum standard curve signal [22]: 0.01 RFI; maximum standard curve signal [23]: < 0.01 RFI; maximum standard curve signal [24]: 0.01 RFI; maximum standard curve signal [25]: 0.01 RFI; maximum standard curve signal [26]: 2.77 RFI; maximum standard curve signal [27]: 0.22 RFI; maximum standard curve signal [28]: 0.01 RFI; maximum standard curve signal [29]: 0.01 RFI; maximum standard curve signal [30]: 0.04 RFI; maximum standard curve signal [31]: 5.17 RFI; maximum standard curve signal [32]: 7.12 RFI; maximum standard curve signal [33]: 1.51 RFI; maximum standard curve signal [34]: 0.01 RFI; maximum standard curve signal [35]: 0.01 RFI |
| 0.03 RFI | 0.12 RFI | 0.03 RFI | 0.04 RFI | 0.04 RFI | 0.03 RFI | 0.11 RFI | 0.19 RFI | 0.04 RFI | 0.07 RFI | 0.03 RFI | 0.1 RFI | < 0.01 RFI | 0.06 RFI | 0.23 RFI | < 0.01 RFI | 0.01 RFI | 0.03 RFI | 4.65 RFI | 7.28 RFI | p44/42 MAPK (Erk1/2) antibody, Cell Signaling Technology #9102, rabbit polyclonal | maximum standard curve signal [21]: 0.01 RFI; maximum standard curve signal [22]: 0.91 RFI; maximum standard curve signal [23]: < 0.01 RFI; maximum standard curve signal [24]: 0.07 RFI; maximum standard curve signal [26]: 2.44 RFI; maximum standard curve signal [27]: 0.36 RFI; maximum standard curve signal [29]: 0.01 RFI; maximum standard curve signal [30]: 0.05 RFI; maximum standard curve signal [31]: 7.2 RFI; maximum standard curve signal [32]: 8.96 RFI; maximum standard curve signal [33]: 1.51 RFI; maximum standard curve signal [35]: 0.08 RFI |

From US20120220489A1
